Experiment: yeast display, Sf9 membrane polyspecificity reagent, FACS + sequencing; frameworks hold sequencing errors
Method in brief: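 Synthetic nanobody libraries on Saccharomyces cerevisiae BJ5465 were galactose-induced for 36–48 hours, stained 1 hour at 4 °C with 10% biotinylated, detergent-solubilized Sf9 membrane reagent and enriched on streptavidin microbeads. FACS then separated cells into low and high (top ~1%) gates by anti-HA (expression) and streptavidin (reagent binding) fluorescence. Genes were colony-PCR amplified, MiSeq 2 × 250 sequenced and CDR-length filtered. A clone's polyreactivity label is that of its gate of origin.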

QVQLVESGGGLVQAGGSLRLSCAASGSTFYIYAMGWYRPAPGKERELVARISGSGGSTYYADSVKGRFTISRDNAKNTVYLQMNSLKPEDTAVYYCAADDIYKYYQYYAFPYYRYDYWGQGTQVTVSS
polyreactivity (PSR sort gate): low polyreactivity

QVQLVESGGGLVQAGGSLRLSCAASGSTFYIYAMGWYRQAPGKDRELVAAISGRGGSTYYADSVKGRFTISRDNAKNTVYLQMNSLKPEDTAVYYCATYSRQDHKYDYWGQGTQVTVSS
polyreactivity (PSR sort gate): high polyreactivity

QVQLVESGGGLVQAGGSLRLSCAASGSTFYIYAMGWYRQAPGKERELVAAINSGGGTNYADSVKGRFTISRDNAKNTVYLQMNSLKPEDTAVYYCAKTFYSLYWGQGTQVTVSS
polyreactivity (PSR sort gate): low polyreactivity

QVQLVESGGGLVQAGGSLRLSCAASGSTFYIYAMGWYRQAPGKERELVAAISWRGGRTYYADSVKGRFTISRDNAKNTVYLQMNSLKPEDTAVYYCAAAYLRWSGTYYYVDGYDYWGQGTQVTVSS
polyreactivity (PSR sort gate): high polyreactivity

QVQLVESGGGLVQAGGSLRLSCAASGSTFYIYAMGWYRQAPGKERELVAAITWSGGSTYYADSVKGRFTISRDNAKNTVYLQMNSQKPEDTAVYYCATKRARYSYDYWGQGTQVTVSS
polyreactivity (PSR sort gate): high polyreactivity

QVQLVESGGGLVQAGGSLRLSCAASGSTFYIYAMGWYRQAPGKEREMVARISGSGGSTYYADSVKGRFTISRDNAKNTVYLQMNSLKPEDTAVYYCAADDIYKYYQYYAVPYYRYDYWGQGTQVTVSS
polyreactivity (PSR sort gate): low polyreactivity

QVQLVESGGGLVQAGGSLRLSCAASGSTFYIYGMGWYRQAPGKERELVARISSGGSTYADSVKGRFTISRDNAKNTVYLQMNSLKPEDTAVYYCAAAAARTYRRYRYEGYYYWGQGTQVTVSS
polyreactivity (PSR sort gate): high polyreactivity

QVQLVESGGGLVQAGGSLRLSCAASGSTFYKYAMGWYRQAAGKERELVASISRSGGSTSYADSVKGRFTISRDNAKNTVYLQMNCLKPEDTAVYYCAATWRQHPGSMGYWGQGTQVTVSS
polyreactivity (PSR sort gate): high polyreactivity

QVQLVESGGGLVQAGGSLRLSCAASGSTFYKYAMGWYRQAPGKERELVAAISRGGSTYYADSVKGRFTISRDNAKNTVYLQMNSLKPEDTAVYYCAAETVSYYSKYDYWGQGTQVTVSS
polyreactivity (PSR sort gate): low polyreactivity

QVQLVESGGGLVQAGGSLRLSCAASGSTFYKYAMGWYRQAPGKERELVASISRRAGSTYYADSVKGRFTISRDNAKNTVYLQMNSLKPEDTAVYYCAAVGRYDRVFDYDYWGQGTQVTVSS
polyreactivity (PSR sort gate): high polyreactivity

QVQLVESGGGLVQAGGSLRLSCAASGSTFYKYAMGWYRQAPGKERELVASISRSGGSTSYADSVKGRFTISRDNAKNTVYLQMNSLKPEDTAVYYCAADRYSSPYYSSPNEYDYWGQGTQVTVSS
polyreactivity (PSR sort gate): high polyreactivity

QVQLVESGGGLVQAGGSLRLSCAASGSTFYKYAMGWYRQAPGKERELVASISRSGGSTSYADSVKGRFTITRDNAKNTVYLQMNSLKPEDTAVYYCAATWRQHPGSMGYWGQGTQVTVSS
polyreactivity (PSR sort gate): high polyreactivity

QVQLVESGGGLVQAGGSLRLSCAASGSTFYLNAMGWYRPAPGKERELVAAISSGGRTYYADSVKGRFTISRDNAKNTVYLQMISLKPEDTGVYYCNAVRYLRGAYNYWGQGTQVTVSS
polyreactivity (PSR sort gate): high polyreactivity

QVQLVESGGGLVQAGGSLRLSCAASGSTFYLYAMGLYRQAPGKERELVAAISSGGRTNYADSVKGRFTISRDNAKNTVYLQMNSLKPEDTAVYYCAARIQWPTWSLYYYWGQGTQVTVSS
polyreactivity (PSR sort gate): high polyreactivity

QVQLVESGGGLVQAGGSLRLSCAASGSTFYLYAMGWYRQAPGKEREFVAAISWSGGRTYYAHSVKGRFTISRDYAKNTVYLQMNSLKPEDTAVYYCAARRRYTWQYTSYDMGYWGQGTQVTVSS
polyreactivity (PSR sort gate): low polyreactivity

QVQLVESGGGLVQAGGSLRLSCAASGSTFYLYTMGWYRQAPGKERELVAASSINGGITYYADSVKGRFTISRDNAKNTVYFQMYSLKPEDTAVYYCAKSSGQTDVGSFYYRLDYWGQGTQVTVSS
polyreactivity (PSR sort gate): low polyreactivity

QVQLVESGGGLVQAGGSLRLSCAASGSTFYNNAMGWYRQAPGKERELVAAISSGGGTYYADSVKGRFTISRDNAKNTVYLQMNSLKPEDTAVYYCAADFANTTHWGRIKRYDYWGQGTQVTVSS
polyreactivity (PSR sort gate): low polyreactivity

Source: the nanobody polyreactivity screen of Harvey et al. (2022)
